T1: Mas receptor fused to Rluc (MasR-Rluc) (human), P04201
T1 chain: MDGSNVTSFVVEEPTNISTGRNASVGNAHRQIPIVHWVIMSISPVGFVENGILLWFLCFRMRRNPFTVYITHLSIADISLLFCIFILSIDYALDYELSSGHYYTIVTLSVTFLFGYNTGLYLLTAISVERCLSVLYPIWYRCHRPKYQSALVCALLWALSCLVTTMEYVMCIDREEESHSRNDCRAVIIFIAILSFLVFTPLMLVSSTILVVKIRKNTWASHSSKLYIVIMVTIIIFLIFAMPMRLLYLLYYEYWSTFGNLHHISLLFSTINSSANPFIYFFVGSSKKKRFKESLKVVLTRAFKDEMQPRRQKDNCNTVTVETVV

B1: Angiotensin AT1 receptor fused to YFP (AT1R-YFP), P30556 1-359 (receptor)
chain: MILNSSTEDGIKRIQDDCPKAGRHNYIFVMIPTLYSIIFVVGIFGNSLVVIVIYFYMKLKTVASVFLLNLALADLCFLLTLPLWAVYTAMEYRWPFGNYLCKIASASVSFNLYASVFLLTCLSIDRYLAIVHPMKSRLRRTMLVAKVTCIIIWLLAGLASLPAIIHRNVFFIENTNITVCAFHYESQNSTLPIGLGLTKNILGFLFPFLIILTSYTLIWKALKKAYEIQKNKPRNDDIFKIIMAIVLFFFFSWIPHQIFTFLDVLIQLGIIRDCRIADIVDTAMPITICIAYFNNCLNPLFYGFLGKKFKRYFLQLLKYIPPKAKSHSNLSTKMSTLSYRPSDNVSSSTKKPAPCFEVE

What was measured:
[1] = target: Mas receptor, endogenous in mouse striatal cells (mouse (endogenous in primary striatal neurons and microglia)) (UniProt P30554); assay: proximity ligation
[2] = target: T1, Mas receptor fused to Rluc (MasR-Rluc) …; assay: FRET or BRET; conditions: remark: other sources report otherwise

Sequence of UniProt P30554 (P30554 whole entry, the tested form may be a part): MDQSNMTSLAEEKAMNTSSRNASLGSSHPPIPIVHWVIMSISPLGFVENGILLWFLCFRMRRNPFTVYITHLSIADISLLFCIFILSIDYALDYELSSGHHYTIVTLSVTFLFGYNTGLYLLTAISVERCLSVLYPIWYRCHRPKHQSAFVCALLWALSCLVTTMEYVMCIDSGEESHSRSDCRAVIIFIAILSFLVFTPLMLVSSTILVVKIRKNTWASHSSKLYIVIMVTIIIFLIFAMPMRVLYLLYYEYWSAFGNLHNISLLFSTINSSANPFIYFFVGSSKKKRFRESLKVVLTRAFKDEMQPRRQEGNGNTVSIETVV

Molecule | PLA red dots/cell (striatal neurons) (red dots/cell) [1] | BRET50 [2]
Angiotensin AT1 receptor, endogenous in mouse striatal cells (from UniProt P29754 1-359) | 1.44 | 
B1 |  | 13 mBU
